The supplement of paper PMC10724198
± gives the standard deviation of the averaged measurements.

Test system: Saccharomyces cerevisiae
Assay: protein stability index of tFT-peptide fusion (C-terminal peptide) (PSI (0-1 scale)); higher = more stable (slower turnover)
Conditions: genetic background: wild type; temperature: 30 C
Experimental: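 Multiplexed protein stability (MPS) profiling in S. cerevisiae. Random 12-aa peptides (tFT-X12 library) are fused to the C-terminus of a sfGFP-mCherry tandem fluorescent timer, after mCherry and a GGGS linker. Cells are FACS-sorted into 8 mCherry/sfGFP bins and deep-sequenced. The protein stability index (PSI) is the read-weighted bin average, scaled from 0 (unstable) to 1 (stable). Only peptides with >10 reads are reported; cells were grown at 30 °C in SC-His with glucose.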
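Note: PSI is a weighted mean of sequencing reads over stability bins, variants kept only with over 10 reads, mCherry proximal and sfGFP distal, peptide attached via GGGS linker.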

Sequence	protein stability index
FSYCFRLLPSSL	0.558 ± 0.096
FTCVVRRGDIQL	0.675 ± 0.056
FTFFFNCYSRSS	0.655 ± 0.038
FTPPPLLLPPPP	0.698 ± 0.0037
FTWRTIRPRCQW	0.7184 ± 0.005
FTYGPVQGAARG	0.717 ± 0.015
FVCCSIRFGCGW	0.604 ± 0.014
FVFDVTAYRGLL	0.738 ± 0.03
FVFWCFGSFCSC	0.553 ± 0.015
FVGMLSDRAPPP	0.742 ± 0.041
FVGSFYWSGFYV	0.70213 ± 0.00049
FVGSVFWCWSGR	0.706 ± 0.032
FVLLSPRYSPPR	0.676 ± 0.027
FVSFTAVALFFG	0.567 ± 0.035
FVSGSVCPLLPP	0.667 ± 0.026
FVSVSVRFHHSF	0.575 ± 0.056
FVVAERSDRNLV	0.6875 ± 0.00093
FWGGGRGLVGEV	0.664 ± 0.024
FWGQNKVCLSCQ	0.571 ± 0.09
FWGRYIGRDRGT	0.62 ± 0.12
FWMIYPHLLTPP	0.629 ± 0.036
FYCSWGGNDVDN	0.692 ± 0.075
FYLLTASVCGMF	0.53 ± 0.0053
FYPRPTVPPHGL	0.585 ± 0.024
GAAKDYLMALEG	0.705 ± 0.076
GAAVWGPLCVWL	0.6534 ± 0.0052

Sequence	protein stability index
GAEAFWAVRGGG	0.721 ± 0.009
GAGAVRPPARAS	0.699 ± 0.059
GAGGGRSERERG	0.593 ± 0.0074
GAGLSLALSGPL	0.607 ± 0.0094
GAGRGLRQGSGG	0.666 ± 0.043
GAIKKTQGGGYK	0.69 ± 0.019
GAKVALLSFGFA	0.667 ± 0.1
GALPPPPARGDL	0.768 ± 0.024
GAMVVRSSSPWT	0.685 ± 0.019
GANSILRDIEFL	0.69 ± 0.05
GARGGSGGGQPG	0.661 ± 0.019
GARGIHSVRVRR	0.713 ± 0.053
GARGLVGHWRRG	0.615 ± 0.035
GARGRAYDRTSQ	0.669 ± 0.038
GASSSPAQGCSL	0.691 ± 0.048
GATAGNPEATPS	0.624 ± 0.074
GATLGRQEPGHS	0.671 ± 0.056
GAVGDRVRVCGS	0.668 ± 0.02
GAWVAVTWAAGL	0.729 ± 0.018
GAWVFLSSRVVH	0.7227 ± 0.0054
GCCACDIGGEGG	0.642 ± 0.0079
GCCWVVISPAGY	0.616 ± 0.044
GCFGLLVSSLFS	0.7111 ± 0.0024
GCGARSVQSLGD	0.707 ± 0.039
GCGGGVCGWWDA	0.916 ± 0.12
GCGGVGGFGGGL	0.605 ± 0.047

Sequence	protein stability index
GCGREGGGLDKD	0.781 ± 0.094
GCGRGGIAGGPR	0.702 ± 0.0014
GCGSVVVGVGGG	0.652 ± 0.028
GCLCWVLSGRGA	0.68 ± 0.035
GCQLLSEVSVCL	0.667 ± 0.0079
GCRRGGGFLECV	0.633 ± 0.034
GCRRGGGMERAQ	0.649 ± 0.05
GCSLWCPDFCLC	0.665 ± 0.0097
GCVVLGFDSVAV	0.842 ± 0.2
GDECHSCSSPIA	0.786 ± 0.13
GDGGCKVEWVRG	0.724 ± 0.012
GDGLGFNRPNGR	0.659 ± 0.025
GDGWPTRSGGTG	0.701 ± 0.01
GDISILGSEYSM	0.728 ± 0.0091
GDLASASAWGVR	0.681 ± 0.026
GDPWLGVRNAVG	0.749 ± 0.22
GDQTLVSSRQSG	0.6603 ± 0.002
GDRGFTTEAGNC	0.67 ± 0.018
GDRGTLTPLRRQ	0.678 ± 0.0073
GDSSRVGPVGRA	0.714
GDVRLWMRGIER	0.803 ± 0.077
GEECGRERLMCF	0.7291 ± 0.0055
GEEEGSQGGCEV	0.6611 ± 0.0061
GEGFLRVGLADV	0.761 ± 0.09
GEGLGIGGYVRG	0.672 ± 0.044
GEKSSDDYEVKD	0.6554 ± 0.002

Sequence	protein stability index
GESGGVGGQCWR	0.74 ± 0.0082
GESPSRVRSSAG	0.694 ± 0.036
GESSLSTGAQHK	0.67 ± 0.021
GESWEKVMNKRM	0.704 ± 0.049
GFAALLSSLFFL	0.683 ± 0.061
GFAIWRDGKYRR	0.674 ± 0.022
GFCSVIVLSLLL	0.487 ± 0.041
GFFSCAPFPFNG	0.741 ± 0.082
GFGILGLPQPCV	0.662 ± 0.067
GFINYDHKVIRI	0.77 ± 0.023
GFLCGFVGVFAD	0.56953 ± 0.00032
GFLGTLARAGRE	0.657 ± 0.068
GFLVALVSRIGW	0.565 ± 0.037
GFRALRCPTAFS	0.742 ± 0.078
GFRFSERRFPGL	0.733 ± 0.0092
GFRGGAYRWCIS	0.701 ± 0.03
GFSGLRGFWSGM	0.713 ± 0.04
GFSGSPWSNPFV	0.8663 ± 0.0025
GFSKNCSCVVLC	0.559 ± 0.029
GFVGTVHLKCIS	0.642 ± 0.031
GFVRGDRSGVGG	0.702 ± 0.036
GFWSRIGDLFRG	0.698 ± 0.037
GGAGEAWGGLRW	0.767 ± 0.025
GGAGGVVGGGGG	0.616 ± 0.018
GGARVAVCEGGE	0.771 ± 0.026
GGAVRSGRLFCC	0.648 ± 0.022

Sequence	protein stability index
GGAWESGRVEQV	0.684 ± 0.041
GGCAGGVGRLAV	0.692 ± 0.011
GGCFGGVGGGSG	0.707 ± 0.034
GGCLSVLGLGSV	0.688 ± 0.031
GGCRQKPRGGAD	0.666 ± 0.09
GGCSDKVVRGGV	0.695 ± 0.014
GGCVGVLGGWGV	0.695 ± 0.012
GGDGGGERGEGK	0.701 ± 0.027
GGDVHGEGNVCG	0.698 ± 0.027
GGDWVGHVLDLW	0.708 ± 0.012
GGEGGWLGEGIG	0.59 ± 0.0098
GGESENEVGSRS	0.644 ± 0.038
GGEVPFRLCRLW	0.6914 ± 0.0019
GGFFLFAVGVGN	0.627 ± 0.013
GGGAGGGGVVVR	0.643 ± 0.016
GGGARCGGGCRV	0.684 ± 0.03
GGGARGDCLMGS	0.6809 ± 0.0018
GGGARGGGGWGG	0.631 ± 0.097
GGGCRASSLFPE	0.6644 ± 0.0058
GGGEGREEQEGR	0.701 ± 0.019
GGGEGVPDSASE	0.668 ± 0.021
GGGGAGGGGGGG	0.6739 ± 0.0021
GGGGATSGRLSR	0.705 ± 0.023
GGGGCVMGVGRV	0.668 ± 0.0092
GGGGGAGGDGRG	0.66 ± 0.022
GGGGGAKGEGVR	0.733 ± 0.1

Sequence	protein stability index
GGGGGGGGAGGV	0.6985 ± 0.0011
GGGGGGGGAWSG	0.723 ± 0.037
GGGGGGVRWASG	0.707 ± 0.051
GGGGGSMDLRDR	0.697 ± 0.0076
GGGGGVWWVGRV	0.678 ± 0.074
GGGGLFGCWVCG	0.654 ± 0.011
GGGGMVVGEVVG	0.685 ± 0.038
GGGGPGLEARSL	0.618 ± 0.0078
GGGGRGGVVRSG	0.634 ± 0.095
GGGGRGMWGIFG	0.676 ± 0.045
GGGGSCWYGNRL	0.6353 ± 0.0027
GGGGVFGVVRVG	0.631 ± 0.037
GGGGWGRGKGCW	0.719 ± 0.0079
GGGIERYCWLQI	0.708 ± 0.067
GGGKRGDMSVVV	0.689 ± 0.0092
GGGKRSERGGEP	0.672 ± 0.12
GGGLGRRLLGGR	0.69 ± 0.078
GGGRALGRVWPG	0.684 ± 0.017
GGGRGAGIPVIF	0.623 ± 0.073
GGGRGDWALRGG	0.751 ± 0.011
GGGRGVAVVWVV	0.61 ± 0.023
GGGRRVCGVLAV	0.619 ± 0.013
GGGSGVLEWGSV	0.714 ± 0.12
GGGVEAIEVSQG	0.678 ± 0.041
GGGVGRLAGLLG	0.693 ± 0.046
